Test results reported in PMC11099136, “Structure, mechanism, and evolution of the last step in vitamin C biosynthesis” (Nature Communications, 2024).

How the values were obtained:
vGalDH = target: T1, vGalDH (synthetic construct, UniProt Z9D058OTD2); assay: cytochrome c reduction at […] nm, Michaelis-Menten fit; assay type: biochemical; conditions: 50 μM equine cytochrome c, 50 mM potassium phosphate pH 8, 25 °C
T1 construct: SUMO cleaved for crystals; noncovalent FAD
T1 sequence (Z9D058OTD2 110-619): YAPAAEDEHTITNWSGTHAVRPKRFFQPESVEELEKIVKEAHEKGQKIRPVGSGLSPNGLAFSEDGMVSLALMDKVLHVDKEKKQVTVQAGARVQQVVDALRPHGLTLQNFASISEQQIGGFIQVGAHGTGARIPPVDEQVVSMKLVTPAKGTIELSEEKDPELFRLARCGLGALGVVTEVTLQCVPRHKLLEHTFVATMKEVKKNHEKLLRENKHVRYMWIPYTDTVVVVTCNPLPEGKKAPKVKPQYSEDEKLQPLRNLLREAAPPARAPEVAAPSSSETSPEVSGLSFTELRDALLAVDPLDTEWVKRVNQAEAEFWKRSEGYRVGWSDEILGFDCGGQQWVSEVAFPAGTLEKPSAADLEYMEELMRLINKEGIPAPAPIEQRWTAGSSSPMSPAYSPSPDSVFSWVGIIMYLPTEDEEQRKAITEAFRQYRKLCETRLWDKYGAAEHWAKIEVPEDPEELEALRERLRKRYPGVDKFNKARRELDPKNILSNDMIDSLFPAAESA

[1] = substrate: O=C1O[C@H]([C@@H](O)CO)[C@@H](O)[C@@H]1O; assay: oxygen consumption (Oxygraph), Michaelis-Menten fit; assay type: biochemical, synthetic construct; conditions: oxygen as co-substrate, 50 mM potassium phosphate pH 8, 25 °C
Method: (§1) oxygen consumption (Oxygraph), Michaelis-Menten fit on tGULO | KM values in the sub-millimolar range were measured for mGULO and tGULO | also L-galactono-1,4-lactone (i.e.: GalDH substrate; Fig. 1A) and D-arabino-1,4-lactone (ALO substrate) are effectively oxidized

[2] = substrate: O=C1O[C@H](CO)[C@@H](O)[C@@H]1O; assay: as above; assay type: biochemical, synthetic construct; conditions: oxygen as co-substrate, 50 mM potassium phosphate pH 8, 25 °C
Method: as §1

[3] = substrate: O=C1O[C@H]([C@@H](O)CO)[C@H](O)[C@@H]1O; assay: as above; assay type: biochemical, synthetic construct; conditions: oxygen as co-substrate, 50 mM potassium phosphate pH 8, 25 °C
Method: as §1

[4] = substrate: O=C1O[C@H]([C@@H](O)CO)[C@@H](O)[C@@H]1O; assay: as above; assay type: biochemical, synthetic construct; conditions: oxygen as co-substrate, 50 mM potassium phosphate pH 8, 25 °C; remark: listed apart in the source
[5] = substrate: O=C1O[C@H](CO)[C@@H](O)[C@@H]1O; assay: as above; assay type: biochemical, synthetic construct; conditions: oxygen as co-substrate, 50 mM potassium phosphate pH 8, 25 °C; remark: listed apart in the source
[6] = substrate: O=C1O[C@H]([C@@H](O)CO)[C@H](O)[C@@H]1O; assay: as above; assay type: biochemical, synthetic construct; conditions: oxygen as co-substrate, 50 mM potassium phosphate pH 8, 25 °C; remark: listed apart in the source
[7] = substrate: O=C1O[C@H]([C@@H](O)CO)[C@@H](O)[C@@H]1O; assay: as above; assay type: biochemical, synthetic construct; conditions: oxygen as co-substrate, 50 mM potassium phosphate pH 8, 25 °C; remark: listed apart in the source
Text: (§2) oxygen consumption (Oxygraph), Michaelis-Menten fit on cGULO

[8] = substrate: O=C1O[C@H](CO)[C@@H](O)[C@@H]1O; assay: as above; assay type: biochemical, synthetic construct; conditions: oxygen as co-substrate, 50 mM potassium phosphate pH 8, 25 °C; remark: listed apart in the source
Text: as §2

[9] = substrate: O=C1O[C@H]([C@@H](O)CO)[C@H](O)[C@@H]1O; assay: as above; assay type: biochemical, synthetic construct; conditions: oxygen as co-substrate, 50 mM potassium phosphate pH 8, 25 °C; remark: listed apart in the source
Text: as §2

[10] = substrate: O=C1O[C@H]([C@@H](O)CO)[C@@H](O)[C@@H]1O; assay: as above; assay type: biochemical, synthetic construct; conditions: oxygen as co-substrate, 50 mM potassium phosphate pH 8, 25 °C; remark: listed apart in the source
Text: (§3) oxygen consumption (Oxygraph), Michaelis-Menten fit on mGULO

[11] = substrate: O=C1O[C@H](CO)[C@@H](O)[C@@H]1O; assay: as above; assay type: biochemical, synthetic construct; conditions: oxygen as co-substrate, 50 mM potassium phosphate pH 8, 25 °C; remark: listed apart in the source
Text: as §3

[12] = substrate: O=C1O[C@H]([C@@H](O)CO)[C@H](O)[C@@H]1O; assay: as above; assay type: biochemical, synthetic construct; conditions: oxygen as co-substrate, 50 mM potassium phosphate pH 8, 25 °C; remark: listed apart in the source
Text: as §3

## O=C1O[C@H]([C@@H](O)CO)[C@H](O)[C@@H]1O [L-gulono-1,4-lactone]
vGalDH
  Km: 2.1 ± 0.3 mM

## O=C1O[C@H]([C@@H](O)CO)[C@@H](O)[C@@H]1O [L-galactono-1,4-lactone]
vGalDH
  Km: 0.0166 ± 0.0026 mM

## O=C1O[C@H](CO)[C@@H](O)[C@@H]1O [D-arabino-1,4-lactone]
vGalDH
  Km: 1.1 ± 0.1 mM

B1: tGULO (synthetic construct) (protein)
chain: MVQGHGGYKFQNWAQTYGCSPELYFQPTSVEEIKEILDLARQRSKRVKVVGGGHSPSDIACTDDFMIHMNKMNKILKVDKEKKQVTVEAGILLSDLNEELSKHGLALSNLGAVSDVAAAGVIGTGTHNTGIQHGILATQVVALTLMTASGEILECSESVNAELFQAARLHLGCLGVILTVTFQCVPAFHLQETQFPSTLKEVLDNLDSHLKKSEYFRFLWFPHTENVSVIYQDRTDKPPSSSANWFWDYAIGYYLLEFLLWISTFLPRLVPWINRFFFWLLYSGKVERVNLSYKVFNYECRFKQHVQDWAIPIEKTKEALLELKAWLESNPKVVAHFPVEVRFARGDDILLSPCYQRDSCYMNIIMYRPYGKDVPRQQYWLAYENIMKKVGGRPHWAKAHTCTRKDFEKMYPGFQKFCSIREKLDPTGMFLNTYLEKVFY
notes: His-SUMO fusion from pBAD in E. coli; membrane-associated, purified in reduced Triton X-100; covalent FAD
[1]
  Km: 5.4 ± 1.2 mM
  kcat: 1.3 ± 0.1 s⁻¹
[2]
  Km: 9.4 ± 0.9 mM
  kcat: 2.9 ± 0.1 s⁻¹
[3]
  Km: 0.8 ± 0.2 mM
  kcat: 7.3 ± 0.5 s⁻¹

B2: jGULO (synthetic construct) (protein)
chain: MVQGTEGYKFQNWAQTYSCQPELYFEPTSVEEIRQILELARQRSKRVKVVGCGHSPSDIACTDDYMIRMNKMNKILKVDKEKRQVTVEAGILLSDLNEELAKHGLALSNLGAVSDVTVAGVIGTGTHNTGIQHGILATQVVALTLMTASGEILECSESVNKEIFQAARLHLGALGVILTVTFQCEPAFRLHQQQFPSTLTEVLDNLDTHLKKSEYFRFLWFPHTDHVTVFYADRTDKPVQSTSSWFWDYAIGYYLLEFLLWISTFFPRLVPWINRFFFWLLYSAKVERVNRSDKVFNFECLFKQHVSDWAIPIEKTKAALLQLKEWLENNPDVRAHFPVEVRFVRADDILLSPCYQRDSCYINIIMYRPYGKDVPRERYWAAYEDIMKKVGGRPHWAKAHSCTRKDFEKMYPAFQKFCSIREKLDPSGMFLNTYLEKVFF
notes: as for B1
[4]
  Km: 7.1 ± 0.8 mM
  kcat: 8.0 ± 0.3 s⁻¹
[5]
  Km: 10.7 ± 2.5 mM
  kcat: 2.9 ± 0.3 s⁻¹
[6]
  Km: 6.9 ± 0.6 mM
  kcat: 3.9 ± 1.3 s⁻¹

B3: cGULO (synthetic construct) (protein)
chain: MATGMKGYKFTNWAKTYSCQPELYFEPTTTEEIRQILELARQHSKRVKVVGCGHSPSDIACTTDYMISMKKFNKVLEVDKEKCQVTVQAGILLKDLNEELPKHGMALSNLGAVSDITVAGVISTGTHGTGVNYGILATHVVELTLMTASGEILKCSREENKDIFLAALCGLGALGIILTVTIQCEPAFKLHQKQFPCTLDEVLDNLDTHLKSSEHFRFMWFPHTDHVVVFHANRTDKPVQSTSSWFWDYLVGYYLLEFLLWISTFFPSLVPWINRFFFWLLYSQPKERVDRSDKVFNFECLFKQYVTEWAIPREKTAAVLLELKDWLESNPDFHAHFPVEVRFVRADDIYLSPCYQRDSCYINIIMYRPYGKDVPREKYWAAYEDIMMKVGGRPHWAKAHKVTAKDFQKMYPKFEKFCSIREKLDPQGMFLNSYLERVFF
notes: as for B1
[7]
  Km: 11.8 ± 1.2 mM
  kcat: 3.5 ± 0.3 s⁻¹
  kcat/Km: 300 M⁻¹ s⁻¹
[8]
  Km: 48.6 ± 24 mM
  kcat: 0.6 ± 0.1 s⁻¹
  kcat/Km: 12.3 M⁻¹ s⁻¹
[9]
  Km: 6.1 ± 0.7 mM
  kcat: 3.2 ± 0.1 s⁻¹
  kcat/Km: 520 M⁻¹ s⁻¹

B4: mGULO (synthetic construct) (protein)
chain: MVHGHKGVKFQNWAKTYGCSPEMYFQPTSVEEIREVLDLARQQNKRVKVVGGGHSPSDIACTDGFMIHMGKMNRILKVDKEKKQVTVEAGILLADLNVELSKHGLALSNLGAVSDVTAAGVIGTGTHNTGIKHGILATQVVALTLLTASGTILECSESSNAELFQAARVHLGCLGVILTVTFQCVPQFHLQETSFPSTLKEVLDNLDSHLKKSEYFRFLWFPHSENVSVIYQDHTNKPPSSSANWFWDYAIGFYLLEFLLWISTFLPCLVPWINRFFFWLLFTGKVENSNLSYKIFNYECRFKQHVQDWAIPIEKTKEALLELKAMLESNPKVVAHYPVEVRFTRGDDILLSPCFQRDSCYMNIIMYRPYGKDVPRLDYWLAYETIMKKVGGRPHWAKAHTCTRKDFEKMYPAFQKFCAIREKLDPTGMFLNAYLEKVFY
notes: His-SUMO fusion from pBAD in E. coli (tag kept in stopped-flow); membrane-associated, purified in reduced Triton X-100; covalent FAD
[10]
  Km: 1.9 ± 0.2 mM
  kcat: 4.2 ± 0.1 s⁻¹
  kcat/Km: 2200 M⁻¹ s⁻¹
[11]
  Km: 3.3 ± 0.4 mM
  kcat: 0.5 ± 0.1 s⁻¹
  kcat/Km: 150 M⁻¹ s⁻¹
[12]
  Km: 0.8 ± 0.1 mM
  kcat: 6.1 ± 0.1 s⁻¹
  kcat/Km: 7600 M⁻¹ s⁻¹
